{"source": "paper PMC3828182", "key": {"[1]": {"molecular_target": "FLAG-tagged HPV51 chimera 5 L2 (Ch5L2-FLAG) (human papillomavirus type 51, Ma strain | human papillomavirus type 51, Nu strain) (UniProt P26539)"}, "[2]": {"molecular_target": "FLAG-tagged HPV51 chimera 4 L2 (Ch4L2-FLAG) (human papillomavirus type 51, Ma strain | human papillomavirus type 51, Nu strain) (UniProt P26539)"}}, "data": [{"substance": "transport protein particle complex subunit 8 (TRAPPC8) (from UniProt Q9Y2L5 1-1435) (natural protein)", "values": [{"measurement": "percent of HeLa cells GFP-positive by flow cytometry after inoculation with HPV51 PsV containing the (untagged) Ch5L2 and a GFP-expression plasmid", "setting": "[1]", "value": 80, "unit": "%"}, {"measurement": "percent of HeLa cells GFP-positive by flow cytometry after inoculation with HPV51 PsV containing the (untagged) Ch4L2 and a GFP-expression plasmid", "setting": "[2]", "value": 4, "unit": "%"}]}]}
